Laboratory results: publication PMC4195821 (The Journal of Cell Biology, 2014)

T1: GST-Bem1p (yeast, UniProt P29366 1-551)
T1 sequence (looked up): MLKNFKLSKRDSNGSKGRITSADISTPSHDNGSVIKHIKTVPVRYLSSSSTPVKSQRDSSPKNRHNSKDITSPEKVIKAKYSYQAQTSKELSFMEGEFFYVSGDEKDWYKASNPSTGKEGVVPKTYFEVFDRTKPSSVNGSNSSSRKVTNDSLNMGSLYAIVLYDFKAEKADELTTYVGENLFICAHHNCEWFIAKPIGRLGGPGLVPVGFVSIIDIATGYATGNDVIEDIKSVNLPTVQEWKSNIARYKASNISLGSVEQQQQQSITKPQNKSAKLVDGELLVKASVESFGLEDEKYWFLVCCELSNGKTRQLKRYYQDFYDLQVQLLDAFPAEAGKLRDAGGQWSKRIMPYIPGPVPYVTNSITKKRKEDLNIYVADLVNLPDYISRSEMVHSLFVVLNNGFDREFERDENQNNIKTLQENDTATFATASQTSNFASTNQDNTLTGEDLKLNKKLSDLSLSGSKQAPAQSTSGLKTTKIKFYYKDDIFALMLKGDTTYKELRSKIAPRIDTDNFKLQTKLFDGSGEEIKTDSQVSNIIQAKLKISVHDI


How the values were obtained:
[1] = target: GST-Exo70p (yeast, UniProt P19658 1-623); test: pull-down
GST-Exo70p, sequence (P19658 whole entry): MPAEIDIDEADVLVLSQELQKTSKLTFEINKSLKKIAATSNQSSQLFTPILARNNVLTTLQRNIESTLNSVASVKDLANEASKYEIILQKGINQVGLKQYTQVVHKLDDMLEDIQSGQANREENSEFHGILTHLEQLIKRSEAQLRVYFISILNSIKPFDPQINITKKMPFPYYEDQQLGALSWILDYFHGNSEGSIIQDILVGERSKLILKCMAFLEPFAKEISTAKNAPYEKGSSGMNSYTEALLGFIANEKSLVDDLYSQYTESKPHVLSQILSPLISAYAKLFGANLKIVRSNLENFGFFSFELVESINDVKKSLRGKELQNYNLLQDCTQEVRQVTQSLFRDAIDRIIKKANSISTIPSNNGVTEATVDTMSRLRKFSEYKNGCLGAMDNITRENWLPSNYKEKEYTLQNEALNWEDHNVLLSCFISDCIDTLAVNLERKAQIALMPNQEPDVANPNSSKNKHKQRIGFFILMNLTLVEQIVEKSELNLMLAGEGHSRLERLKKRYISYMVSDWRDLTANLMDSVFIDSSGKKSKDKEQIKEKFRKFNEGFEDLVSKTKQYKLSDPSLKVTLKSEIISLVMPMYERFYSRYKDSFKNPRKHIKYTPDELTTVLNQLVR

[2] = target: T1, GST-Bem1p; test: pull-down

| Binder | Kd [1] | binding result [2] |
| --- | --- | --- |
| Bem1p-His6 (natural protein, yeast, UniProt P29366 1-551, looked up) MLKNFKLSKRDSNGSKGRITSADISTPSHDNGSVIKHIKTVPVRYLSSSSTPVKSQRDSSPKNRHNSKDITSPEKVIKAKYSYQAQTSKELSFMEGEFFYVSGDEKDWYKASNPSTGKEGVVPKTYFEVFDRTKPSSVNGSNSSSRKVTNDSLNMGSLYAIVLYDFKAEKADELTTYVGENLFICAHHNCEWFIAKPIGRLGGPGLVPVGFVSIIDIATGYATGNDVIEDIKSVNLPTVQEWKSNIARYKASNISLGSVEQQQQQSITKPQNKSAKLVDGELLVKASVESFGLEDEKYWFLVCCELSNGKTRQLKRYYQDFYDLQVQLLDAFPAEAGKLRDAGGQWSKRIMPYIPGPVPYVTNSITKKRKEDLNIYVADLVNLPDYISRSEMVHSLFVVLNNGFDREFERDENQNNIKTLQENDTATFATASQTSNFASTNQDNTLTGEDLKLNKKLSDLSLSGSKQAPAQSTSGLKTTKIKFYYKDDIFALMLKGDTTYKELRSKIAPRIDTDNFKLQTKLFDGSGEEIKTDSQVSNIIQAKLKISVHDI | ~260 nM |  |
| His6-MBP-Cdc24^781-854p (domain or fragment, yeast, UniProt P11433 781-854, looked up) FTLLVEKVWNFDDLIMAINSKISNTHNNNISPITKIKYQDEDGDFVVLGSDEDWNVAKEMLAENNEKFLNIRLY |  | binds |
